Results taken from patent US20160106830A1.

Legend:
[1] = molecular target: HLA-DR4 (α1*01:01; β1*04:01) (human); test: ProImmune REVEAL class II MHC-peptide binding assay
[2] = molecular target: HLA-DR7 (α1*01:01; β1*07:01) (human); test: as above

PEHVVNHYFQTRHYLHTLWKAGILYKRETTRSASF (modifications not checked) [NP151]
binding score (% of positive control peptide signal) [1]: 74.4%
binding score (% of positive control peptide signal) [2]: 19.4%

VGPLTVNEKRRLKLIMPARFYPNVTKYLPLDKGIK (modifications not checked) [NP113]
binding score (% of positive control peptide signal) [1]: 33.5%
binding score (% of positive control peptide signal) [2]: 99.2%
